PMC11784390, “Conformational changes in and translocation of small proteins: insights into the ejection mechanism of podophages” (Journal of Virology, 2024)

T1: core protein gp16 (bacteriophage T7), P03726
T1 chain: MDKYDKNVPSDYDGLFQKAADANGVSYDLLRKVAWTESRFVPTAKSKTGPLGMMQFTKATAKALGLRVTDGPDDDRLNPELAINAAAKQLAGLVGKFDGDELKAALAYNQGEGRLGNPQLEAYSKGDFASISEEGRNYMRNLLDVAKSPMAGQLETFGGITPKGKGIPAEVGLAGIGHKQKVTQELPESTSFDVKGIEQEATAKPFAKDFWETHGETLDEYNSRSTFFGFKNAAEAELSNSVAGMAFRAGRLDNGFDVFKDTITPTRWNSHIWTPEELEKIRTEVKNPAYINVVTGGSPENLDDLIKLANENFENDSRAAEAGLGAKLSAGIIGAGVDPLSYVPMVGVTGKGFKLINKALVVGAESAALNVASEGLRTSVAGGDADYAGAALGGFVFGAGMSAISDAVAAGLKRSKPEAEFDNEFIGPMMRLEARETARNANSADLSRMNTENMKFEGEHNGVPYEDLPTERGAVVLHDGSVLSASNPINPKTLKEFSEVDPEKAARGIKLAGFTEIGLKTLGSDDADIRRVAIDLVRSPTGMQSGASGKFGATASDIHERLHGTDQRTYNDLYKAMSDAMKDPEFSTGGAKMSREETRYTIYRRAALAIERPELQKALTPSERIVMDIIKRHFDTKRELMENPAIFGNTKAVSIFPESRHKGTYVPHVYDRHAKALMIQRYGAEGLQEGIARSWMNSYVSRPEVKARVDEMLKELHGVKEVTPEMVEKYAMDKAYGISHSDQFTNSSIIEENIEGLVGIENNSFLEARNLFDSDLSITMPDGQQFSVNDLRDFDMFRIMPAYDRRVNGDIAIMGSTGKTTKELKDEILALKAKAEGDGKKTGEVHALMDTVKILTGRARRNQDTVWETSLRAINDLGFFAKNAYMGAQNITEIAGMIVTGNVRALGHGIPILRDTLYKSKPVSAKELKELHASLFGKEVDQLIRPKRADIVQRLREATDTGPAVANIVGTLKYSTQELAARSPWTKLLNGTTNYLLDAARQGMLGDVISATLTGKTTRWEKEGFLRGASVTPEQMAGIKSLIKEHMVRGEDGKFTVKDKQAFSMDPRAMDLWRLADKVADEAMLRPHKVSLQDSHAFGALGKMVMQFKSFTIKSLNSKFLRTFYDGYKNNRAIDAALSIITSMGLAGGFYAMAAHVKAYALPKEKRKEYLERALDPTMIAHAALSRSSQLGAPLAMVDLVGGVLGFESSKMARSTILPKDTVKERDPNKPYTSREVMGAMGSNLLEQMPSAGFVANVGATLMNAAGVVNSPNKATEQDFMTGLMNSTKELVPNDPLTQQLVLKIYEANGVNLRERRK

T2: portal protein gp8 (bacteriophage T7, UniProt P03728 1-536)
T2 construct: portal protein gp8 of bacteriophage T7, as it stands in the virion; Native virion protein; also called dodecameric portal; source: T7 virions propagated in E. coli, purified (PEG precipitation, CsCl ultracentrifugation); copies: 12
T2 sequence (looked up): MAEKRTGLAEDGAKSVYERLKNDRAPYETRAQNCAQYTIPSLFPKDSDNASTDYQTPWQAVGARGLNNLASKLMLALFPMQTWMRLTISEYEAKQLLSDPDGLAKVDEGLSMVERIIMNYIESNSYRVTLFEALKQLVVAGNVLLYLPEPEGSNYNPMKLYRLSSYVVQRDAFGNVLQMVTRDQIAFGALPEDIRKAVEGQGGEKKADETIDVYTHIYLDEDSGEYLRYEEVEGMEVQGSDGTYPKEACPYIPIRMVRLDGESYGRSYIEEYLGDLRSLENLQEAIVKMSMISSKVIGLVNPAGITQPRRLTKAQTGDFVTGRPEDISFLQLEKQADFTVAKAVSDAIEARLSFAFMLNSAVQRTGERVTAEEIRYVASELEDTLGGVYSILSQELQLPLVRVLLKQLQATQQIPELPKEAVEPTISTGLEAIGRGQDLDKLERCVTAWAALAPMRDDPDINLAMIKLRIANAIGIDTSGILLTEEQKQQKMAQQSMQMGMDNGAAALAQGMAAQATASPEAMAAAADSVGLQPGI

T3: core protein gp15 (bacteriophage T7, UniProt P03725 1-747)
T3 construct: core protein gp15 of bacteriophage T7, as it stands in the mature virion; Eight-fold ring in the core of mature T7; source: T7 virions propagated in E. coli, purified (PEG precipitation, CsCl ultracentrifugation)
T3 sequence (looked up): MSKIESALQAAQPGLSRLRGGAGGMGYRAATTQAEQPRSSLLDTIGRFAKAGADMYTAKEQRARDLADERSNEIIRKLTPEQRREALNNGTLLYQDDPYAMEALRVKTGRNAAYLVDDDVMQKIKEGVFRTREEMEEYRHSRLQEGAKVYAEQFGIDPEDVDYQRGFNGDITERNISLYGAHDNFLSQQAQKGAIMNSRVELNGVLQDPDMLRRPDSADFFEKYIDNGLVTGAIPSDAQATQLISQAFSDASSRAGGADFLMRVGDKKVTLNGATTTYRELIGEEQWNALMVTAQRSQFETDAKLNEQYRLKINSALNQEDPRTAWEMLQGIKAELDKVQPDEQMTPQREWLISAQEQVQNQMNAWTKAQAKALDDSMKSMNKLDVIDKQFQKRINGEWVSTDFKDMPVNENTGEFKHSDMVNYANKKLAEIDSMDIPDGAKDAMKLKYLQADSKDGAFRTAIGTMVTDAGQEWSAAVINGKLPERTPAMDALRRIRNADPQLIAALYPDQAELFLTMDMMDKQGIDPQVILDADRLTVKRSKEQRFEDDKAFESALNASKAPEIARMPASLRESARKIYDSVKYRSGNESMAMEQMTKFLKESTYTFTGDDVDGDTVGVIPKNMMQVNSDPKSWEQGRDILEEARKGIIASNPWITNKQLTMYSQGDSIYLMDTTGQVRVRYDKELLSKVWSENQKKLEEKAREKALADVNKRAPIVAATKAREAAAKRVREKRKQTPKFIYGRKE

T4: core protein gp14 (bacteriophage T7, UniProt P03724 1-196)
T4 construct: core protein gp14 of bacteriophage T7, 196 residues as printed; modelled residues 4-86 and 101-129 in mature T7, 25-143 in DNA-ejected T7; Eight copies resolved in the mature virion, six copies in the extended channel of DNA-ejected T7; source: T7 virions propagated in E. coli, purified (PEG precipitation, CsCl ultracentrifugation)
T4 sequence (looked up): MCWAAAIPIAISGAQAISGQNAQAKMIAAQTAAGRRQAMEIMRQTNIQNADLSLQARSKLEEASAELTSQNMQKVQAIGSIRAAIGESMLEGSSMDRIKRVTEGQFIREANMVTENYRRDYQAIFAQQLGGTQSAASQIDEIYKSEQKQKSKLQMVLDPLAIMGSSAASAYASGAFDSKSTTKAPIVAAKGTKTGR

T5: nozzle protein gp12 (bacteriophage T7, UniProt P03747 1-794)
T5 construct: nozzle protein gp12 of bacteriophage T7, as it stands in the virion; Native virion protein; also called tail nozzle; source: T7 virions propagated in E. coli, purified (PEG precipitation, CsCl ultracentrifugation)
T5 sequence (looked up): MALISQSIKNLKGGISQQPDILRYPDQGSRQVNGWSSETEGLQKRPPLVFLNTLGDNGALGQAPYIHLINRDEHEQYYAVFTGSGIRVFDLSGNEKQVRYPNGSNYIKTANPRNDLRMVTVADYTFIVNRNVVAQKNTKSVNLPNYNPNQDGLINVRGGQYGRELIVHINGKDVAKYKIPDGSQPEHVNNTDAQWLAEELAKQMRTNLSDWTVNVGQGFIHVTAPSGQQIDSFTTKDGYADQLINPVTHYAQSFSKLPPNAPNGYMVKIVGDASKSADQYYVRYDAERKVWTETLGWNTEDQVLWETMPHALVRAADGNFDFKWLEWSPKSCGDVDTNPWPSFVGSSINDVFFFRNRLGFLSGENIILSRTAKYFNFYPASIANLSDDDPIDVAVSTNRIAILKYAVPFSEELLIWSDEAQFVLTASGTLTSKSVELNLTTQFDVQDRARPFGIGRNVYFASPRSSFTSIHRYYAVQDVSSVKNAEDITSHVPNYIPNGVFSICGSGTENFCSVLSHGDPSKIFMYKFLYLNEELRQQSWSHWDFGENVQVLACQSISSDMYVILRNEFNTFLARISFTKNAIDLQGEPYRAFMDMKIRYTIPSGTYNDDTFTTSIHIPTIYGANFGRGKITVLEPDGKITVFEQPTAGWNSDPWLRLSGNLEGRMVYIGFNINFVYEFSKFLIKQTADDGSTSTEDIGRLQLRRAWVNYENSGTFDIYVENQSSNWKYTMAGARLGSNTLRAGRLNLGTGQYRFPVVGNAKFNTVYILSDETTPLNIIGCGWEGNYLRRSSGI


Key:
[1] = target: T1, core protein gp16 (bacteriophage T7), …; assay: cryo-EM structure; mature T7 virions, in situ; entire particle asymmetric 6.1 Å; local reconstructions of core complex 3 Å (four-fold), portal 2.5 Å (twelve-fold), portal–tail complex 2.7 Å (six-fold); conditions: remark: other sources report otherwise
portal protein gp8 = target: T2, portal protein gp8; assay: as above; conditions: both partners purified
core protein gp15 = target: T3, core protein gp15; assay: as above; conditions: both partners purified
core protein gp14 = target: T4, core protein gp14; assay: as above; conditions: both partners purified
nozzle protein gp12 = target: T5, nozzle protein gp12; assay: cryo-EM structure; DNA-ejected T7: purified mature T7 incubated with rough LPS (250 µg/mL) at 37°C for 3 h; entire particle asymmetric 8.2 Å; portal–tail complex 3.5 Å (six-fold); conditions: both partners purified

Row | Binder | stoichiometry N [1] | binding result (portal protein gp8) | binding result (core protein gp15) | binding result (core protein gp14) | binding result (nozzle protein gp12)
1 | core protein gp16, P03726 1-1318 (natural protein) MDKYDKNVPSDYDGLFQKAADANGVSYDLLRKVAWTESRFVPTAKSKTGPLGMMQFTKATAKALGLRVTDGPDDDRLNPELAINAAAKQLAGLVGKFDGDELKAALAYNQGEGRLGNPQLEAYSKGDFASISEEGRNYMRNLLDVAKSPMAGQLETFGGITPKGKGIPAEVGLAGIGHKQKVTQELPESTSFDVKGIEQEATAKPFAKDFWETHGETLDEYNSRSTFFGFKNAAEAELSNSVAGMAFRAGRLDNGFDVFKDTITPTRWNSHIWTPEELEKIRTEVKNPAYINVVTGGSPENLDDLIKLANENFENDSRAAEAGLGAKLSAGIIGAGVDPLSYVPMVGVTGKGFKLINKALVVGAESAALNVASEGLRTSVAGGDADYAGAALGGFVFGAGMSAISDAVAAGLKRSKPEAEFDNEFIGPMMRLEARETARNANSADLSRMNTENMKFEGEHNGVPYEDLPTERGAVVLHDGSVLSASNPINPKTLKEFSEVDPEKAARGIKLAGFTEIGLKTLGSDDADIRRVAIDLVRSPTGMQSGASGKFGATASDIHERLHGTDQRTYNDLYKAMSDAMKDPEFSTGGAKMSREETRYTIYRRAALAIERPELQKALTPSERIVMDIIKRHFDTKRELMENPAIFGNTKAVSIFPESRHKGTYVPHVYDRHAKALMIQRYGAEGLQEGIARSWMNSYVSRPEVKARVDEMLKELHGVKEVTPEMVEKYAMDKAYGISHSDQFTNSSIIEENIEGLVGIENNSFLEARNLFDSDLSITMPDGQQFSVNDLRDFDMFRIMPAYDRRVNGDIAIMGSTGKTTKELKDEILALKAKAEGDGKKTGEVHALMDTVKILTGRARRNQDTVWETSLRAINDLGFFAKNAYMGAQNITEIAGMIVTGNVRALGHGIPILRDTLYKSKPVSAKELKELHASLFGKEVDQLIRPKRADIVQRLREATDTGPAVANIVGTLKYSTQELAARSPWTKLLNGTTNYLLDAARQGMLGDVISATLTGKTTRWEKEGFLRGASVTPEQMAGIKSLIKEHMVRGEDGKFTVKDKQAFSMDPRAMDLWRLADKVADEAMLRPHKVSLQDSHAFGALGKMVMQFKSFTIKSLNSKFLRTFYDGYKNNRAIDAALSIITSMGLAGGFYAMAAHVKAYALPKEKRKEYLERALDPTMIAHAALSRSSQLGAPLAMVDLVGGVLGFESSKMARSTILPKDTVKERDPNKPYTSREVMGAMGSNLLEQMPSAGFVANVGATLMNAAGVVNSPNKATEQDFMTGLMNSTKELVPNDPLTQQLVLKIYEANGVNLRERRK | 4 | – | – | – | –
2 | small protein gp6.7 (natural protein, bacteriophage T7, UniProt P03801 1-88, looked up, gp6.7 of bacteriophage T7, 88 residues as printed; modelled loop I (2-15) and loop II (34-50) in mature T7, conformer A 11-41 and conformer B 11-59 in DNA-ejected T7; Twelve copies in the mature virion and in the extended channel of DNA-ejected T7; also called core protein gp6.7; source: T7 virions propagated in E. coli, purified (PEG precipitation, CsCl ultracentrifugation)) MCFSPKIKTPKMDTNQIRAVEPAPLTQEVSSVEFGGSSDETDTEGTEVSGRKGLKVERDDSVAKSKASGNGSARMKSSIRKSAFGGKK | – | binds | binds | binds | binds
